Data: US20170022287A1 (Chugai, published 2017)

B1: R5 (antibody, V domains shown)
VH: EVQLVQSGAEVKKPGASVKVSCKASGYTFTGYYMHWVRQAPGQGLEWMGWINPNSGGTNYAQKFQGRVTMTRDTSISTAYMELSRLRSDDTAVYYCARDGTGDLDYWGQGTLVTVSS
VL: QSALTQPRSVSGSPGQSVTISCTGTSSDVGVYDYVSWYQQFPGKAPKLMIYDVNKRPSGVPDRFSGSKSGNTASLTVSGLQAEDEADYYCCSYSGTDIRWLFGGGTKLTVL
notes: Naive library clone; Fab on phage in the phage ELISA
B2: R4 (antibody, V domains shown)
VH: EVQLVQSGAEVKKPGASVKVSCKASGYTFSGYYMHWVRQAPGQGLEWMGWINPNSGDTNYAQNFQGRVTMTRDTSISTAYMELSRLRSDDTAVYYCARDGTGYSSSPDYWGQGTPVTVSS
VL: QSALTQPASVSGSPGQSITISCTGTSSDVGGYNYVSWYQQHPGKAPKLMIYDVSNRPSGVSNRFSGSKSGNTASLTISGLQAEDEADYYCSSYTSSSTRWVFGGGTKLTVL
notes: as for B1
B3: R6 (antibody, V domains shown)
VH: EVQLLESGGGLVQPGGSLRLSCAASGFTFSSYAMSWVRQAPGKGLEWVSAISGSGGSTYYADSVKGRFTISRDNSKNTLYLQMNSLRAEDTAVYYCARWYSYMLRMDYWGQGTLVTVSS
VL: DIQMTQSPSSLSASVGDRVTITCRASQSISSYLNWYQQKPGKAPKLLIYAASSLQSGVPSRFSGSGSGTDFTLTISSLQPEDFATYYCQQFHSFPLTFGGGTKVEIK
notes: Synthetic library clone; Fab on phage in the phage ELISA

How the values were obtained:
CRD1 [1] = biological target: T1, CRD1; experiment: ELISA, coated CD137-Fc protein 2 µg/mL, antibody 10 or 5 µg/mL, absorbance 620 nm; Non (uncoated well) 0.216
T1 construct: also called fragmented human CD137-Fc fusion protein CRD1

CRD1-3 [2] = biological target: T2, CRD1-3; experiment: as above
T2 construct: also called fragmented human CD137-Fc fusion protein CRD1-3

CRD1-2 [3] = biological target: T3, CRD1-2; experiment: as above
T3 construct: also called fragmented human CD137-Fc fusion protein CRD1-2

CRD2-4 [4] = biological target: T4, CRD2-4; experiment: as above
T4 construct: also called fragmented human CD137-Fc fusion protein CRD2-4

CRD2-3 [5] = biological target: T5, CRD2-3; experiment: as above
T5 construct: also called fragmented human CD137-Fc fusion protein CRD2-3

CRD3-4 [6] = biological target: T6, CRD3-4; experiment: as above
T6 construct: also called fragmented human CD137-Fc fusion protein CRD3-4

[7] = biological target: full-length human CD137-Fc fusion protein (human); experiment: as above
CRD1 [8] = biological target: T1, CRD1; experiment: ELISA, coated CD137-Fc protein 2 µg/mL, antibody 10 or 5 µg/mL; absorbance 620 nm divided by that of the uncoated well
CRD1-3 [9] = biological target: T2, CRD1-3; experiment: as above
CRD1-2 [10] = biological target: T3, CRD1-2; experiment: as above
CRD2-4 [11] = biological target: T4, CRD2-4; experiment: as above
CRD2-3 [12] = biological target: T5, CRD2-3; experiment: as above
CRD3-4 [13] = biological target: T6, CRD3-4; experiment: as above
[14] = biological target: full-length human CD137-Fc fusion protein (human); experiment: as above
CRD1 [15] = biological target: T1, CRD1; experiment: ELISA, coated CD137-Fc protein 2 µg/mL, antibody 10 or 5 µg/mL, absorbance 620 nm; Non (uncoated well) 0.051
Protocol: (§1) Fragmented human CD137-Fc fusion proteins were diluted to 2 μg/mL in an aqueous sodium carbonate solution adjusted to pH9.6. Fifty μL of a diluted fragmented human CD137-Fc fusion protein was added individually to each well of a Nunc MaxiSorp flat-bottom 96 well plate (Nunc). This was allowed to stand at 4° C. overnight or longer, and then the plate was allowed to stand at room temperature for one hour so that the plate has the same temperature as the room temperature. The solution containing the fragmented human CD137-Fc fusion protein was removed by tilting, and each well was washed three times with 300 μL of Wash buffer (TBS containing 0.1% Tween20, TaKaRa). Next, 150 μL of blocking buffer (TBS containing 2% BSA) was added to each well, and this was allowed to stand for one hour or more. The blocking buffer was removed by tilting, and each well was washed three times with Wash Buffer in a similar manner to an earlier step. Then, 50 μL of an antibody solution prepared in advance by dilution with TBS to 10 μg/mL or 5 μg/mL was added to each well. This was subjected to a speed of 600 rpm or so for one hour at room temperature to bind the antibody to the immobilized antigen. […] 100 μL of a secondary antibody solution produced by 1000-fold dilution with TBS containing 0.1% Tween20 was added to each well. For the secondary antibody, ANTIBODY ALKALINE PHOSPHATASE CONJUGATE HUMAN IMMUNOGLOBULIN ABSORBED Goat Anti-Human Kappa Alkaline Phosphate from BIOSOURCE was used in the case of antibodies carrying a Kappa chain, and Human Lambda Light Chain Antibody; Goat anti-Human Lambda Light Chain Antibody Alkaline Phosphatase Conjugated from BETHYL LABORATORIES INC. was used in the case of antibodies carrying a Lambda chain. […] Color development was performed using the BluePhos Microwell kit from KPL. After the chromogenic reaction was stopped using the AP stop solution from KPL, the absorbance was measured at 620 nm on an absorptiometer.

CRD1-3 [16] = biological target: T2, CRD1-3; experiment: as above
Protocol: as §1

CRD1-2 [17] = biological target: T3, CRD1-2; experiment: as above
Protocol: as §1

CRD2-4 [18] = biological target: T4, CRD2-4; experiment: as above
Protocol: as §1

CRD2-3 [19] = biological target: T5, CRD2-3; experiment: as above
Protocol: as §1

CRD3-4 [20] = biological target: T6, CRD3-4; experiment: as above
Protocol: as §1

[21] = biological target: full-length human CD137-Fc fusion protein (human); experiment: as above
Protocol: as §1

CRD1-3 [22] = biological target: T2, CRD1-3; experiment: ELISA, coated CD137-Fc protein 2 µg/mL, antibody 10 or 5 µg/mL, absorbance 620 nm; Non (uncoated well) 0.165
CRD2-4 [23] = biological target: T4, CRD2-4; experiment: as above
CRD2-3 [24] = biological target: T5, CRD2-3; experiment: as above
CRD3-4 [25] = biological target: T6, CRD3-4; experiment: as above
[26] = biological target: full-length human CD137-Fc fusion protein (human); experiment: as above

T4 sequence (chain, as listed by the source limits assumed): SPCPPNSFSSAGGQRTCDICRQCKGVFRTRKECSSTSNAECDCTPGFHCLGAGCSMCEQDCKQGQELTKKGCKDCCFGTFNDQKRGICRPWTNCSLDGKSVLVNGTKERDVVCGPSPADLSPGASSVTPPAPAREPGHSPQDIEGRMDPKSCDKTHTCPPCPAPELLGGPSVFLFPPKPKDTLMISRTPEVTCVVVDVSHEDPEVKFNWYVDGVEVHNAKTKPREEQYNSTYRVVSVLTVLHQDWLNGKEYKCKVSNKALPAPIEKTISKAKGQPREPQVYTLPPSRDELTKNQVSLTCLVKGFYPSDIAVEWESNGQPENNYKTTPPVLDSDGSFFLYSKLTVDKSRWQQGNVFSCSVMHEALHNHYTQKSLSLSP
T5 sequence (chain, as listed by the source limits assumed): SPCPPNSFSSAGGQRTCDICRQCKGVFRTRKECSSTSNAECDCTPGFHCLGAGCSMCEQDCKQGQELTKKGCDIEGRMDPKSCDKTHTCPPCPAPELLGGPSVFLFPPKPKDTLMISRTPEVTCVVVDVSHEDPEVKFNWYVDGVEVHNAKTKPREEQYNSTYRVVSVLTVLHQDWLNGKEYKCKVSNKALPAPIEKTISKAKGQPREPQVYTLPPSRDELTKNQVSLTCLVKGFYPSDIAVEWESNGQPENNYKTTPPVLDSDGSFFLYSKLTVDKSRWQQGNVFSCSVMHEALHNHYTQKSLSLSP
T1 sequence (chain, as listed by the source limits assumed): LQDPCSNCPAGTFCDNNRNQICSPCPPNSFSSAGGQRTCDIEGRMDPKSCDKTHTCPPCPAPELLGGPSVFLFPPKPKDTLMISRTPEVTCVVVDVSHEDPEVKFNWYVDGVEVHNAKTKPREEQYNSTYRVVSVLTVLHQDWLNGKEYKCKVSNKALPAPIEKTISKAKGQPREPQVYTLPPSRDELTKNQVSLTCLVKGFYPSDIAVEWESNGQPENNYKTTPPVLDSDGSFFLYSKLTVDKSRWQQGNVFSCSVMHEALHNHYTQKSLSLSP
Chain of full-length human CD137-Fc fusion protein (human) (chain, as listed by the source limits assumed): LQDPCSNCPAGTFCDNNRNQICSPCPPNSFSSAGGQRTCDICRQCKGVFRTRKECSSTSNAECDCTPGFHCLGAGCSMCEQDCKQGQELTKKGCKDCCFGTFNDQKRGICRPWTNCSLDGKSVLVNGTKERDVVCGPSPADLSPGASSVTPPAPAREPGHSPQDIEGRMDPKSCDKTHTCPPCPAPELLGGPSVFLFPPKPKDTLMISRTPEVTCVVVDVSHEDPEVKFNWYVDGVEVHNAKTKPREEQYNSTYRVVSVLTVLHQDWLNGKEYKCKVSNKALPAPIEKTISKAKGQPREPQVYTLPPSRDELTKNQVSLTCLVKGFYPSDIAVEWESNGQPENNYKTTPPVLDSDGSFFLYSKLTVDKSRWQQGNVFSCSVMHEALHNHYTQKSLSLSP
T3 sequence (chain, as listed by the source limits assumed): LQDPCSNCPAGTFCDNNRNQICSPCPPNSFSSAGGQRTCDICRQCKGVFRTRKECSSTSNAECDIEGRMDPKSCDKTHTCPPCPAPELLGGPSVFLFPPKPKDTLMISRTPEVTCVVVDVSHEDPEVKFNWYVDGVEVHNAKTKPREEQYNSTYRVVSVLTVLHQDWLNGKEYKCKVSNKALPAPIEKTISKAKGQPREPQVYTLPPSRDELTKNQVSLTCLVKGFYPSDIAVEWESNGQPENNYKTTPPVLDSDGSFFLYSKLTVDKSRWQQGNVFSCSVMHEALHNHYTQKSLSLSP
T2 sequence (chain, as listed by the source limits assumed): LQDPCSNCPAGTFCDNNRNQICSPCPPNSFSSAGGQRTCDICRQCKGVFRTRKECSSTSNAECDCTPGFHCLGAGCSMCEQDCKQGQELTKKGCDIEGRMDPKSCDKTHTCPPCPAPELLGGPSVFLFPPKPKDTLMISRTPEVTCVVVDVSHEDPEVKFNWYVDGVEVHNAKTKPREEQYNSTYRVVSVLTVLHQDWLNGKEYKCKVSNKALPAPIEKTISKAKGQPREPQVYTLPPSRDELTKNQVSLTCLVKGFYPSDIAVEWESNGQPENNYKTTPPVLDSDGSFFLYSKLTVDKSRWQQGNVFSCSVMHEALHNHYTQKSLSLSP
T6 sequence (chain, as listed by the source limits assumed): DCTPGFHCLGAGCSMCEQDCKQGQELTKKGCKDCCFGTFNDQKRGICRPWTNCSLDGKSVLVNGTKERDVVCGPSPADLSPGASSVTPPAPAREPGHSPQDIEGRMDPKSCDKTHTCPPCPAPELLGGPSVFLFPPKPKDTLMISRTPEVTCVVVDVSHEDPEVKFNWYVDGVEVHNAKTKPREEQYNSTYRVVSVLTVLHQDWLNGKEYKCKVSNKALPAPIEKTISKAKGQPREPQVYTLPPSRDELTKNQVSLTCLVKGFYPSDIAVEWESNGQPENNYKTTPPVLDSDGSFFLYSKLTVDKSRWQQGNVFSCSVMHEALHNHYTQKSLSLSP

| Binder | Ratio with respect to Non-Coating (CRD1 [8]) | Ratio with respect to Non-Coating (CRD1-3 [9]) | Ratio with respect to Non-Coating (CRD1-2 [10]) | Ratio with respect to Non-Coating (CRD2-4 [11]) | Ratio with respect to Non-Coating (CRD2-3 [12]) | Ratio with respect to Non-Coating (CRD3-4 [13]) | Ratio with respect to Non-Coating [14] | other results |
| --- | --- | --- | --- | --- | --- | --- | --- | --- |
| B1 | 1.3 | 6.3 | 7.9 | 1.2 | 1.3 | 0.7 | 8.7 | ELISA color development level (CRD1 [1]): 0.278; ELISA color development level (CRD1-3 [2]): 1.36; ELISA color development level (CRD1-2 [3]): 1.7; ELISA color development level (CRD2-4 [4]): 0.25; ELISA color development level (CRD2-3 [5]): 0.274; ELISA color development level (CRD3-4 [6]): 0.161; ELISA color development level [7]: 1.88 |
| B2 | 1.2 | 15.3 | 29.3 | 1.3 | 1.1 | 1.1 | 37.1 | ELISA color development level (CRD1 [15]): 0.0635; ELISA color development level (CRD1-3 [16]): 0.779; ELISA color development level (CRD1-2 [17]): 1.49; ELISA color development level (CRD2-4 [18]): 0.065; ELISA color development level (CRD2-3 [19]): 0.0585; ELISA color development level (CRD3-4 [20]): 0.056; ELISA color development level [21]: 1.89 |
| B3 |  | 13.9 |  | 14.2 | 15.5 | 16.6 | 13.1 | ELISA color development level (CRD1-3 [22]): 2.3; ELISA color development level (CRD2-4 [23]): 2.34; ELISA color development level (CRD2-3 [24]): 2.56; ELISA color development level (CRD3-4 [25]): 2.73; ELISA color development level [26]: 2.16 |
